Experimental data published in the RNAGym collection of RNA variant scans (doi:10.1073/pnas.2313332121).
Variants at the floor of the assay were thinned out.

B1: TPR 5TU (parent)
chain: GGAUCUUCUCGAUCUAACAAAAAAGACAAAUCUGCCACAAAGCUUGAGAGCAUCUUCGGAUGCAGAGGCGGCAGCCUUCGGUGGCGCGAUAGCGCCAACGUUCUCAACUAUGACACGCAAAACGCGUGCUCCGUUGAAUGGAGUUUAUCAUG

Variants of: B1
Test: polymerase ribozyme fitness, log enrichment relative to wild type (log ratio); higher = more active; in vitro selection for triplet polymerase activity
Outline: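 Each subunit of a heterodimeric triplet polymerase ribozyme was represented by a PCR-built, transcribed mutant library that underwent triplicate single-round in vitro selection with frozen incubation at −7 °C. Extended constructs were recovered by gel excision, streptavidin-bead capture and RT-PCR, and Illumina sequencing of input and output libraries kept genotypes with ≥10 input reads and ≥1 read per output. Fitness is the logarithm of genotype enrichment relative to wild-type enrichment, from inverse-variance-weighted replicate averages, with a logarithm base of 2.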

Variant | polymerase ribozyme fitness (log ratio)
GGAUCUUCUCGAUCUAACAAAAAAGACAAAUCUGCCACAAAGCUUGAGAGCAUCUUCGGAUGCAGAGGCGGCAGCAUUCGGUGGCCCGAUAGCGCCAACGUUCUCAACUAUGACAGGCAAAAAGCGUGCUCCGUUGAAUGGAGUUUAUCAUG [C76A G86C C116G C123A] | -2.66
GGAUCUUCUCGAUCUAACAAAAAAGACAAAUCUGCCACAAAGCUUGAGAGCAUCUUCGGAUGCAGAGGCGGCAGCGUUCGGUGGCGCGAUAGCGCCUACGUUCUCAACUAUGACACGCAAAACGCGUGCUCCGUUGAAUGGAGUUUAUCAUG [C76G A97U] | ≤ -4.2
GGAUCUUCUCGAUCUAACAAAAAAGACAAAUCUGCCACAAAGCUUGAGAGCAUCUUCGGAUGCAGAGGCGGCAGCUUUCGGUGGCGCGAUAGCGCCAACGUUCUCAACUAUGACACGCCAAAUGCGUGCUCCGUUGAAUGGAGUUUAUCAUG [C76U A119C C123U] | 0.258
GGAUCUUCUCGAUCUAACAAAAAAGACAAAUCUGCCACAAAGCUUGAGAGCAUCUUCGGAUGCAGAGGCGGCAGCUUUCGGUGGCGCGAUAGCGCCAACGUUCUCAACUAUGACACGCAAUACGCGUGCUCCGUUGAAUGGAGUUUAUCAUG [C76U A121U] | 0.67
GGAUCUUCUCGAUCUAACAAAAAAGACAAAUCUGCCACAAAGCUUGAGAGCAUCUUCGGAUGCAGAGGCGGCAGCAUUCGGUAGCGCGAUAGCGCCAACGUUCUCAACUAUGACACGCAAAACGCGUGCUCCGGUGAAUGGAGUUUAUCAUG [C76A G83A U134G] | -3.45
GGAUCUUCUCGAUCUAACAAAAAAGACAAAUCUGCCACAAAGCUUGAGAGCAUCUUCGGAUGCAGAGGCGGCAGCUUUCGGUGGUGCGAUAGCGCCAACGUUCUCAACUAUGACACGCAAAACGCGUGCUCCGUUGACUGGAGAUUAUCAUG [C76U C85U A138C U144A] | ≤ -4.2
GGAUCUUCUCGAUCUAACAAAAAAGACAAAUCUGCCACAAAGCUUGAGAGCAUCUUCGGAUGCAGAGGCGGCAGCAUUCGGUGGCGCGAUAGCGCCAACGUUCUCAACUAUGACACGCAAAACGCGUGCUCCGUUGAAUGGAUUUUAUCAUG [C76A G143U] | -3.02
GGAUCUUCUCGAUCUAACAAAAAAGACAAAUCUGCCACAAAGCUUGAGAGCAUCUUCGGAUGCAGAGGCGGCAGCUUUCGGUGGCGCGAUAGCGCCAACGUUCUCAACUAUGACACGCAAAUCGCGUGCUCCGUUGAAUGGAGUUUAUCAUG [C76U A122U] | 0.0697
GGAUCUUCUCGAUCUAACAAAAAAGACAAAUCUGCCACAAAGCUUGAGAGCAUCUUCGGAUGCAGAGGCGGCAGCUUUCGGUGGCGUGAUAGCGCCAACGUUCUCAACUAUGACACGCAAAACGCGUGCUCCGUUGAAUGGAGUUUAUCAUG [C76U C87U] | -0.242
GGAUCUUCUCGAUCUAACAAAAAAGACAAAUCUGCCACAAAGCUUGAGAGCAUCUUCGGAUGCAGAGGCGGCAGCGUUCGGUGGCGCGAUAGCGCAAACGUUCGCAACUAUCACACGCAAAACGCGUGCUCCGUUGAAUGGAGUUUAUCAUG [C76G C96A U104G G112C] | ≤ -4.2
GGAUCUUCUCGAUCUAACAAAAAAGACAAAUCUGCCACAAAGCUUGAGAGCAUCUUCGGAUGCAGAGGCGGCAGCUUUCGGUGGUGCGAUAGCGCCAACGCUCUCAACUAUGACACGCAAAACGCGUGCUCCGUUGAAUGGAGUGUAUCAUG [C76U C85U U101C U145G] | -0.2
GGAUCUUCUCGAUCUAACAAAAAAGACAAAUCUGCCACAAAGCUUGAGAGCAUCUUCGGAUGCAGAGGCGGCAGCAUUCGGUGGCGCCAUAGCGCCAACGUUCUCAACUAUGACACGCAAAACGCGUGCUCCGUUGAAUGGAGUUUAUCAUG [C76A G88C] | ≤ -4.2
GGAUCUUCUCGAUCUAACAAAAAAGACAAAUCUGCCACAAAGCUUGAGAGCAUCUUCGGAUGCAGAGGCGGCAGCAUUCGGUGGCACGAUAGCGCCAACGUUCUCAACUAUGACACGCAAAACGCGUGCUCCGUUGAAUGGAGUUUAUCAUG [C76A G86A] | -2.06
GGAUCUUCUCGAUCUAACAAAAAAGACAAAUCUGCCACAAAGCUUGAGAGCAUCUUCGGAUGCAGAGGCGGCAGCAUUCGGUGGCGGGAUAGUGCCAACGUUCUCAACUAUGACACGCAAAACGCGUGCUCCGUUGAAUGGAGUUUAUCAUG [C76A C87G C93U] | ≤ -4.2
GGAUCUUCUCGAUCUAACAAAAAAGACAAAUCUGCCACAAAGCUUGAGAGCAUCUUCGGAUGCAGAGGCGGCAGCAUUCGGGGGCGCGAUAGCGCCAACGUUCUCAACUAUGACACGCAAAACGCGUGCUCCGUUGAAUGGAGUUUAUCAUG [C76A U82G] | -1.94
GGAUCUUCUCGAUCUAACAAAAAAGACAAAUCUGCCACAAAGCUUGAGAGCAUCUUCGGAUGCAGAGGCGGCAGCGUUCGGUGGCGCGAUAGCUCGAACGUUCUCAACUAAGACACGCAAAACGCGUGCUCCGUUGAAUGGAGUUUAUCAUG [C76G G94U C96G U111A] | ≤ -4.2
GGAUCUUCUCGAUCUAACAAAAAAGACAAAUCUGCCACAAAGCUUGAGAGCAUCUUCGGAUGCAGAGGCGGCAGCGUUCGGUAGCGCGAUAGCGCCAACGUUCUCAACUAUGACACGCAAAACGCGUGCUCCGUUGAAAGGAGUUCACCAUG [C76G G83A U139A U146C U148C] | ≤ -4.2
GGAUCUUCUCGAUCUAACAAAAAAGACAAAUCUGCCACAAAGCUUGAGAGCAUCUUCGGAUGCAGAGGCGGCAGCAUUCGGUGGUGCGAUAGCGCCAACGUUCUCAACUAUGACACGCAAAACGCGUGCUCCGUUGGAUGGAGUUUAUCAUG [C76A C85U A137G] | -1.76
GGAUCUUCUCGAUCUAACAAAAAAGACAAAUCUGCCACAAAGCUUGAGAGCAUCUUCGGAUGCAGAGGCGGCAGCAUUCGGUGGCGCGAUAGCGCCAACGUUCUCAACUAUGACACGCAAAACGCGUGCUCCGUUGAAUGGAGUGUAUCAUG [C76A U145G] | -0.329
